Test results as given in the domain aggregation screens of Martell et al. (2025).

experiment: soluble fraction after stress (log2 fold change); higher = more stays soluble; pooled small domains, quantitative proteomics; conditions: stress: pH 4
In short: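 Aggregation propensity here comes from the fold change in the soluble amount of each small protein domain after acid stress, measured in pooled custom libraries by high-throughput quantitative proteomics. The acid stress was pH 4. On the log2 scale, higher values mean more of the domain stayed soluble.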

First: HMIKNDIGKFIKLYRETHQWSQRELAEHLGVSQRNVSYYEKGERIPPADVLKKLSTLFDVPVDVLLGLK
Second: HMIKRDLAFSEFIAEVKAGQVREVTIKGNSISGNLNDGREFNTYAPNDPNLVKTLTDQGVLIRAIPLE
The “soluble fraction (log2)” value of the first is lower: -0.274 for the first, 0.227 for the second.

Compared with “HMILNPQELGERIRKLRLKRNKTQSYFADMLYISSSYLALIESGKRVPNLDLLIHIAKFTDVTLDYLVFG”, “HMILVLKPGAPEDLKNELIHDIEKMGLRVHVSVGEGTTIIGLIGDTSKISKYTFSSYEIVSNVLRVT” is higher in “soluble fraction (log2)” value: -0.573 for the first, -0.35 for the second.

First: HMILYDDEYKGPRYRYGLHSRPLSPGAVPKGFIIHSDRPHPDFRHGTLDYPVKLPDDRAANFELIFIGEFD
Second: HMIMMTLGEKIRSIRKAKGMTQQELAEKLNTTKQTIGKYEKGIVTNLPLFRINELARALSTTPAYLTGW
The “soluble fraction (log2)” value of the first is lower: -1.19 for the first, at least 0.43 for the second.

Compared with “HMIMPSDATEAKLLGVLGNEPLHVDEIRNQAELPIEKVSAALALMELKGMVRQVGGMNYVAVR”, “HMIMQTTSDRINQRMRDLGLQHKDLVAATGASKGTVTNWINGVNNPTGKRLVQLAQALKTTSSWLLTGN” is higher in “soluble fraction (log2)” value: -0.263 for the first, -0.0389 for the second.

Going from “HMINDPSALGQRAFVDELLWMAGYVPEKIEIYQTLPNNSRVYRVKLDSVNGGFIFIRWDKKKKEHYV” to “HMINEEELLKIENIKRKYPDSKAALMPVLYFFQEKYGFISDDSIKEISQLLNISEVDIKGVVSFYEMFHEK”, the “soluble fraction (log2)” value falls from -0.444 to -1.04.

“HMINEVVSLRDVPSFIGKAKRDVIRIAEENNLKIKINGNGYVKEQTPNPGNKYKSNQEIKVFLEPG” and “HMINFSKNIISDTTSIKEAIEILNIISGRDNHILFVLNDKRQLIGTLSDGDVRRGMLASKTISQSVTEVM” are within 0.2 log units of each other in “soluble fraction (log2)” value: 0.0157 for the first, 0.0244 for the second.

Going from “HMINIDESIDESLSEDDAVLDLLERASASFTKAQEALLEGDLGRYQTLIEQADRLVAKALELLDEKN” to “HMINIQYSYNDGKETLHNLSPEVIAEKIMDDPNGYHIVWKQGMVGWVNANDIDDIAKLLRQKK”, the “soluble fraction (log2)” value rises from -1.34 to -0.0166.

Compared with “HMINKDNLIEEILKFINTKIADISSNNPLFDIVAKPYISKVVTNNVSKLDKALSLIADDKGMVDADGLLT”, “HMINLDGIGEKISRLRKEQGVTIRELSEYTGYSVGFLSNLETGKNSPTVESLQRVAEALRTDIIEILTK” is lower in “soluble fraction (log2)” value: -0.295 for the first, -0.754 for the second.

First: HMINLNEVLANFQKSYPNLAGFKYDQGMDALVYEGNYIRLNGYMLSRINPTLFSMSPDDIFTYLKNGF
Second: HMINRMGRLVEALSHMIANTKPGARLPSEPELARQLGVSRATLREAMRTFEAQGMIHRRQGAGTFVVH
The “soluble fraction (log2)” value of the first is lower: -1.22 for the first, 0.00515 for the second.

Going from “HMINYSQKQLIAIQDELSKRFQALENESTKNNVTGFGVGLHYIDIDLIVNTPEKQKEFREKIMDSPAFRFN” to “HMINYYELLKLDMNAAHEEINDAIKLESEKNTIPEDQIRTMKSIFFNTEFKKEYDQRLMNFLLT”, the “soluble fraction (log2)” value falls from 0.106 to -1.28.

Compared with “HMIPDAIDPDGRFKWRAGEAVVGFGRHAGEPLKKIAIENPEFLRWILKADFSTDVKKIASDALKGYFPEK”, “HMIPDLPAVGVNVHKERRRQQLSLDALAAGSGVSKAMLSQIESGKVNPTVATMWKIAHALGVDFELLLKGE” is lower in “soluble fraction (log2)” value: 0.284 for the first, -0.00451 for the second.

“HMIPDPPALGSNLHRERRRQQLSLDALAAASGVSKAMLSQIEADKVNPTIATMWKIAHALNIDFETLLRGE” and “HMIPENKRVLISLTYIYGIGKKISQDILEKANIDSSIKTSQLTDDDVARIRQLIENDYLVEGELRV” are within 0.2 log units of each other in “soluble fraction (log2)” value: 0.172 for the first, 0.00777 for the second.

“HMIPLPEDVASMRERLALTPEKADELFGLEDGSFARYEHGEEKVPFVVFQLLWLLGKYPHLIGELR” and “HMIPRGFSRYYILELLQKKPHTGKEIIDNAIKESGGRWNPSPGLIYPLLGRLLDENLIEETNDGKYK” are within 0.2 log units of each other in “soluble fraction (log2)” value: -0.801 for the first, -0.631 for the second.

Compared with “HMIPSLTITVNEHSRQITRGTSLYTLRDALYPDADVLVVNGHPADSDRHLEEGDAVVLIRRGA”, “HMIQIQDIAFSEFLQELDKGNIVEVNIKGDLINGDLINGKKFKTVAPYDPNLVEKLSKQNVRINVEPIN” is higher in “soluble fraction (log2)” value: -0.394 for the first, -0.0277 for the second.

“HMIQLKEHDVVRLRETIVENDEKIPAGTRGVVLSVYDGGRAFAVEVADDRAASAIITAFRDQLEVY” and “HMIQNTGMMESGDSIRGMALDAGFPLLMVVGYRGWTRKGNTPDSAAVYTEPFLNAFRLNYYLVEHDE” are within 0.2 log units of each other in “soluble fraction (log2)” value: -0.0481 for the first, -0.0253 for the second.

Compared with “HMIQVNKTQALIIEEMRDNPNITLLELQKTLSLGRTAIQNNVSSLRKRQIIKRVGSNKNGYWEVTDK”, “HMIRQETYLLVRKAVGALPVQMRKIIELAMQGKKNAEIAAQLSISEGTVHTLKKTAYKKLRDRLQE” is lower in “soluble fraction (log2)” value: 0.22 for the first, -0.32 for the second.

Going from “HMIRQGTKQALLIEMLQRPEGASITEIVEATSWQAHTARGAISGALKKKLGLPITSEKHPERGTVYKL” to “HMISAQEQALRNLKLSNGMTWKALAKALGITERSILSYVAAPGTKGYREMPAEVWHKLENISGH”, the “soluble fraction (log2)” value rises from -0.55 to 0.143.

Going from “HMISDAEWTIMKALWQSEDKKMTLKEIAEAVADSGWSYTTVRTMVGRLVEKEAIEADESHPRNFRYSAA” to “HMISEGDIIKGTVIDVNEEEVILDLKYYAQGVIKAENLSNDPDFLAAGKISVGDEIEATVIKMDDGEGNIE”, the “soluble fraction (log2)” value rises from -1.4 to -0.496.

Going from “HMISESIPAKDALLRLLNTAYQTRTNAAGEFYFNDVPPGKYILQASVNDVEIIRENISINEN” to “HMISEWDAAYSYAKQYYEENGHLFVPKKYVTSEGAALGKWIWEQRDSYLGLSSYKISDKKIEMLEDIGMFW”, the “soluble fraction (log2)” value falls from -0.433 to -2.73.

Going from “HMISINVIGEMISGSYGNTPFSRTYEKDIYEQMVKLSDDADQAQTVEEYNKILAEFSLLTTEDLK” to “HMISKWGELVDLAVQLDIIQKSGSWFSMGDERIGQGANSVKDYLIANPDIAEKVEAEVRENLWKLN”, the “soluble fraction (log2)” value rises from -1.73 to -0.351.

Going from “HMISKYLRIESDILSAIREGRLKPGDKLPGQSEMRRIYNVSAITVRKAFTDLINDGYLVGVRGSGTYVAKR” to “HMISQATMEKMGLTNRERQLVDFIVRGASNQEISEKMFISINTVKIHVSNIFRKAGVRSRTELMDKYP”, the “soluble fraction (log2)” value falls from 0.117 to -0.693.

Compared with “HMISSKDIINDEDGARLGKIADVEIDVATGKILSVHVYRSFKLLHLFGNKDVVQIPWNKIMKIGSDVVIVE”, “HMISVENLSNREFEIFQLIGNGFSTKEMAKKLNLSIYTVESHKKNIKEKLKLKNSSDLSKYAIQWVIMQN” is lower in “soluble fraction (log2)” value: -0.198 for the first, -1.35 for the second.

Going from “HMITANNYFNEVERIGVETLPETLRKGHDLVVRSTNSGTNWSNYQNNESIRKVIDLYLQKLNEYVSTST” to “HMITGSIQPKNGKYYAVLNLYDHTGKRRPKWVSTGYTVKGNKKKAQEVLNELTRRYSAQLPPSK”, the “soluble fraction (log2)” value rises from -0.676 to 0.22.

First: HMITLPDFVGKDVETVKAWAKENGITLIVNKVEDSAKKDTVISQTPTTYDYSKIMKGSSFTVNVAKE
Second: HMITNLEPFKDFVRGFSGLHLEGVGQEKLAAALDERIRKTGSANERDYLQLIMEDVAERLKLINILT
The “soluble fraction (log2)” value of the first is higher: 0.0768 for the first, -1.17 for the second.

Compared with “HMITPAARLRALKIRLSVDEVAQIVQRLVNGETVYQIGKPDTGGHAKATVGKINALRLAGQLHFL”, “HMITTLLVENLQDVGMRLDHYLVYNLIKYSRSHIQSFIRSGDIRVNGKKVKTGYSLELKDLIHIEMP” is lower in “soluble fraction (log2)” value: -0.259 for the first, -1.1 for the second.

Compared with “HMITVPKVINMSETQARQTLDALGLNVTLSATQVMNDKIPYGYVAAQSYSAGKEVPAGTTIELTMSIGL”, “HMIVDYPSFVGKTKQELEKWAKENNIIIRYRQLSVTASDKVKAQLPATTTYKRIMKGSSIEVELEL” is lower in “soluble fraction (log2)” value: 0.0236 for the first, -0.749 for the second.

Going from “HMIVIMKAKAEEEDVNRVIDTIQSLGLRTQLNLGAERMVVAVIGDISKIGEDNFFRIRAMKGVENTVFVSK” to “HMIVMPELRGKDLKEAERLLSSHNLRYELVDSVYDKSLAPGVVVEMVPQSGNTVKPGRIIFLSINA”, the “soluble fraction (log2)” value rises from -0.811 to -0.272.

First: HMIVNTTRAPYLLGETEQDAMRLARQAGLVPEIVRQSSAEPAGTVILQSHDFDYRMRRGSVILITVSTGPL
Second: HMIVPPAIPFRALGIFGPRDRPIVTFEDGPRLINAREGDVLDGRFILRRVGRESVDFAFVGLPPEITRRIP
The “soluble fraction (log2)” value of the first is higher: 0.22 for the first, -0.608 for the second.

First: HMIVSEYIIIGGDKKEYGPVSMGEVGEWVQGGRANGDSKIKKVGTEEWGRLRDFPEFSAYLS
Second: HMIVVMARETSTDDLEAIRERIESRGMVAQINLGVERTVIGVMGSIPPDFKDEMELMNGVVEVVMISK
The “soluble fraction (log2)” value of the first is higher: -0.309 for the first, -1.64 for the second.

Going from “HMIVVMKTSASERDLQEVIARIEQFGFATRSIVGSERATVSVLGAPLPDSLQEALERMPGVEEVVRITK” to “HMIYAEDFVGRQGTANTILRPSGRIEIEGEVYDAYTRGEYVEAGERVVVISQEGSTLKVRVV”, the “soluble fraction (log2)” value falls from -0.0559 to -1.36.

Going from “HMIYQEGMQVKYQGKEYVISEIQDYKTYKTIKLDDNEGYLNGFITGSEILSFRNESELDLEI” to “HMIYSKSDLELFGIKKIDVMEENILMLILSEYELDQTPKNILIDEAVRLSKKFGADNAYKFVNATLDTLL”, the “soluble fraction (log2)” value falls from -0.785 to -1.51.

Going from “HMKAETILAIPENQPERLFPNNEDEARKIYRDLAREWHTDRNKSPKAQDVFSHLSKLYDIVIDRIKNKTWT” to “HMKAGRNTLARQMAILEVLQKDGRALVDDLAARFETTPQTIRKDLSALAEVNQISRFHGGAALVG”, the “soluble fraction (log2)” value falls from -0.0463 to -0.279.

Going from “HMKAKTYTVQYIDEGKIIKEEELEEGSIINAPEVTKEGHTFIGWYEGEEKYDVYEPITRNLILESKNEIN” to “HMKALEGMRTVFTLADLATEPVTVEITVLEAFKYTTTLEIVQRPVLREWMTNPSMLIRVYHDASTAE”, the “soluble fraction (log2)” value rises from -0.989 to -0.138.

Going from “HMKAMIIVMKPGADMATISKVLKTIETNGFKPHLSKGEETTVIGVIGDERKLNPDIFSTLEGVERIVPVA” to “HMKASTRELLDFVLSQRGVSTASVAKALGISVQNASTRLKKLSNEGLIIRSEASSLTGGIEFLYS”, the “soluble fraction (log2)” value falls from 0.279 to 0.0289.

“HMKDASEFLGAKGKTITPLRPTGAAVINGEKVDVLAEGEFIPKNAEIVVIKVEGSKIIVRNANN” and “HMKDDLTWSEGLMPNVVGMGLRDAMFMLENSGLRVNYSGRGKVTRQSPQPGVRIKRGATVAIELRL” are within 0.2 log units of each other in “soluble fraction (log2)” value: -0.0474 for the first, 0.0273 for the second.

First: HMKDEHYLYIKARVDNGDYPHLSELKSAEEIELVMPKLLQDGIVEFNKETGEYTIGEDVKAEIERL
Second: HMKDESYALGTRLLSHALGKTKLEDLAQEKIDEVVQQSGNKTLEQLLTNIGLGNALSIGIARQLT
The “soluble fraction (log2)” value of the first is lower: -1.02 for the first, at least 0.43 for the second.

Compared with “HMKDGAKYFQLFGLLKNEINRGIYQSGQKIPGENELAEKYGMSRQTVRQALSLLEQESLIERRQGSGTYVR”, “HMKDGMRVYITYHDSEEEPEKPIGDGTTKGWHTNSTASVVWISQKVAESADLGIWGDPIRIKGEA” is lower in “soluble fraction (log2)” value: 0.185 for the first, -0.217 for the second.

With “HMKDIIVDPQGQYNHPGVPTRIPSSDITMKGVGYPVLGIADNGQKQMMQPGQDYKFPGAKYVDEYPQM” the “soluble fraction (log2)” value was 0.0501.
